Amyloid nucleation score data for 130 substances are collected here from the supplement of paper PMC12042874.

± gives the uncertainty stated by the source.

The data set in a line: amyloid nucleation score (Sup35N fusion, yeast selection) (log enrichment); library NNK3; higher = more nucleation; inactive = no reads after selection. The method, boiled down:
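Peptides of 20 random codons fused to Sup35N were expressed in psi-negative yeast, induced 24 hours with 100 μM copper sulfate, then grown 7 days at 30°C on medium lacking adenine and uracil. Input and output plasmid inserts were Illumina-sequenced. Nucleation score is the DiMSum log enrichment of output over input reads, centred on the mode score of non-aggregating sequences, excluding sequences with under 100 input reads. Random libraries had three technical output replicates.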

Regarding TSDQSESISLFRYI, the amyloid nucleation score entry is “inactive”. Take FGMGKRLSNENMPLVSCTGL: the amyloid nucleation score entry was “inactive”. Turning to CSSGYIQKMVSRYMSYGYHF, the amyloid nucleation score result is “inactive”. Regarding GTLCTETHGT, the amyloid nucleation score entry is “inactive”. Consider KIYANHLL, for which the amyloid nucleation score entry was “inactive”. The result for GLRFPMRWDCGVRVNYRKSR reads “inactive”; that for SMLSMLTLRSLSLTFMKRNQ, 0.626 ± 0.32; that for KRWGEPYRMIVGYMVRYMVT, 2 ± 0.089. On to LLRTL, for which the amyloid nucleation score result was “inactive”. For KSPVWIQIPLMCFLLEFVLG, the amyloid nucleation score was found to be 0.471 ± 0.2. The result for ASVKGDRDDELSIKYVFGVG reads “inactive”; that for SIISMDKDRTLAHTDHQV, “inactive”. Consider DFTCDPSTLNSRRLSEDLIR, for which the amyloid nucleation score entry was “inactive”. In the case of DRNEVLDQNVVDSEISTVLP, the amyloid nucleation score entry is “inactive”.

IWQFRGSPSVYSARREWIDT: the amyloid nucleation score result is “inactive”. As to FSVFN, the amyloid nucleation score result was “inactive”. With RIPTLIFRLILIMFHDFDFQ the entry was “inactive”; with AQKFSIWLCTTICINTDFDF, 2.31 ± 0.06. With LMPSDFISSYNSLYDGCLGG the entry was “inactive”. With WGGSVRYKVSRICLGQCERE the entry was “inactive”; with RQIRPMRTLSGTLGAGDRCH, “inactive”. For ILTGNGYDSTRKAYCQFWCF, the amyloid nucleation score entry was “inactive”. Consider SPGYINGNGSSVRSVFNL, for which the amyloid nucleation score entry was “inactive”. The result for PFENR reads “inactive”.

For the substance AAPKGGYPVLCCSVRTGRN, the amyloid nucleation score was found to be 0.804 ± 0.13. In the case of EQGSSLHRHNHFVTLMGCRG, the amyloid nucleation score entry was “inactive”. Regarding VRAPTYVGAWSPGEFNYRSD, the amyloid nucleation score result was “inactive”. For the substance ASRIDINRIWFVFWIQAIKS, the amyloid nucleation score entry is “inactive”. On to SMATNCTDR, for which the amyloid nucleation score result is “inactive”. The result for TGHSQSLVVLTCWCVLFHAR reads “inactive”; that for YQVVVGNFCLLHSVCI, 0.124 ± 0.38. With RNMLVAPDSCMASRWYGVHL the entry was “inactive”; with GGLTSYDQ, “inactive”; with WLLFDPVGVVKQSLVARNSY, “inactive”.

Regarding SLRVLWCIRLKCSCLCWISG, the amyloid nucleation score entry is “inactive”. With TNPTVYWDRGMVGCKKLRAH, the amyloid nucleation score result was “inactive”. Take QYGSLGSTYTSAYLWRLYVL: the amyloid nucleation score result was “inactive”. In the case of WYRYSGGYNWP, the amyloid nucleation score came out at 0.396 ± 0.29. RGKNVAWWVTSSTKSYSAK yielded an amyloid nucleation score of 0.304 ± 0.23. The result for CGGIAFRNFLMNSGMPLEWK reads “inactive”; that for SVMSLDVVMVVRYFY, 0.999 ± 0.12; that for FRSFIGKNHEKRSVILCILE, “inactive”. SIEKAILCSCVVSMPIMRGG gave an amyloid nucleation score of 2.3 ± 0.081. The result for EIKYTDL reads “inactive”.

As for SKSYVEF, the amyloid nucleation score entry is “inactive”.

CVVYIGCNATGFKC came in with an amyloid nucleation score of 1.87 ± 0.059. Consider VTPVTYQASLTICYSYKALH, for which the amyloid nucleation score entry was “inactive”. On to IVRPLLNFLCDLCRKVALGK, for which the amyloid nucleation score entry was “inactive”. STSSLASNYRDFSIR: the amyloid nucleation score entry is “inactive”.

In the case of DFSSWSFYHYPLVGQSSYTS, the amyloid nucleation score entry was “inactive”. As to SYLPEFRCVVRFKFFQDKLL, the amyloid nucleation score result was “inactive”.

IMCANSEVVKCYCNRTKLEL yielded an amyloid nucleation score of 1.08 ± 0.14. The result for KLPNYLYRLSLFPVTLVSTM reads “inactive”. As for IRVRTYSTKLPSLGH, the amyloid nucleation score result was “inactive”.

Consider HWQYCLIFNQYVLKLCATHC, for which the amyloid nucleation score turned out to be 1.04 ± 0.16. In the case of IFIIIGRRFIILKSLVRLHF, the amyloid nucleation score result is “inactive”. In the case of CGRNAAVSNARRCCSSKVCM, the amyloid nucleation score result was “inactive”. Consider CYTMSNVRVPWKRGICYCGL, for which the amyloid nucleation score result is “inactive”.

In the case of SSWPICMPASQNLLLNIGLG, the amyloid nucleation score entry is “inactive”. Take LSKHS: the amyloid nucleation score result was “inactive”. With STHGWGGWLSVYIGNP the entry was “inactive”; with RIRCVMFGGRKSRRKLDSVV, “inactive”. The substance LLHHFFAVFDSARETKWDWD registered an amyloid nucleation score of 0.247 ± 0.34.

YWVRNVGYRRNSSSCTWSRG: the amyloid nucleation score result is “inactive”. Take HPRELYTFKKSWFLGRDS: the amyloid nucleation score result was “inactive”. ELIMCCHEYSVLAMRLLA: the amyloid nucleation score result was “inactive”.

For the substance TMMACEANWYRSKNIEFVYA, the amyloid nucleation score entry was “inactive”. Consider DIRRSYTLVRTGFTV, for which the amyloid nucleation score result is “inactive”.

For the substance LLSDICFCYYAREIRNSGCS, the amyloid nucleation score result was “inactive”. KHFLQVVRSSNRTVSARFPL: the amyloid nucleation score entry is “inactive”.

As to DSDVWANAGHRLSLKMI, the amyloid nucleation score entry is “inactive”. On to HSTGFPCLLVKITGLRHRLG, for which the amyloid nucleation score entry was “inactive”. As for VKTINSWIRWVTLRILQVVS, the amyloid nucleation score result was “inactive”. Turning to IRSRTVTWQQWQLHSRNGRS, the amyloid nucleation score amounted to 0.086 ± 0.56. The result for CSVLC reads “inactive”. With WVDGYFNLTENVPAVVGK the entry was “inactive”; with LAFADRITGYGWSGTVRMMW, “inactive”; with WTRNTKLVEIIKMYYQNVNL, “inactive”. The result for AVIWGEAPRIFLTCGALRRE reads “inactive”.

For RDRPKFII, the amyloid nucleation score result is “inactive”. Consider VIRLLVIAFRDHLNEVMFHK, for which the amyloid nucleation score entry is “inactive”.

Turning to SRLWYSPGDYQVFKVRLHIW, the amyloid nucleation score result was “inactive”.

Substance WEWVRPFFLLGYAPEPNITI gave an amyloid nucleation score of 0.232 ± 0.48.

As to CYSCSMLFISWLCRYRSTQY, the amyloid nucleation score worked out at 1.02 ± 0.12. Regarding ELGFFCSL, the amyloid nucleation score entry was “inactive”. Regarding APKCNSTMCSCALMTLFLIS, the amyloid nucleation score turned out to be 2.14 ± 0.085. As to RICSQMLFFRYESRHFWSFV, the amyloid nucleation score result is “inactive”. As to SEKYATSKYCQVTFGVTLPS, the amyloid nucleation score entry was “inactive”.

Substance IAEGFNTVGDLWNIGCCDSG showed an amyloid nucleation score of 0.154 ± 0.33. Consider DWRMAYVSVC, for which the amyloid nucleation score result is “inactive”.

As for FCPTVCQFMVPPPHPSKKLY, the amyloid nucleation score result was “inactive”. Substance VINVYTAINGSWALN yielded an amyloid nucleation score of 2.17 ± 0.059.

Turning to EFQGQTKSSWAYRLDKLCLP, the amyloid nucleation score result is “inactive”.

As for RLCSFTRYLNGATSANNVKL, the amyloid nucleation score entry is “inactive”. LWYWVELLCCTGGSRA showed an amyloid nucleation score of 2.02 ± 0.086. Consider CTRNEYIEW, for which the amyloid nucleation score result was “inactive”. With KSCWLSYGFQLFIGVMNMH the figure was 1.29 ± 0.079; with WQPDTVKGEVLLRVGTMLSV, “inactive”; with LNKVIRCEAYRCKTMN, “inactive”.

Turning to NDVKFGSGR, the amyloid nucleation score entry is “inactive”.

As for WLNYCNCV, the amyloid nucleation score was found to be 1.91 ± 0.078. As to ACFLVFGIYQEVMHDCIGRS, the amyloid nucleation score entry is “inactive”. Consider MYMIWSWCVQMLVNLNHAMA, for which the amyloid nucleation score entry was “inactive”. GHGLGAAYCRIVLKRETLTN: the amyloid nucleation score result is “inactive”. Consider FRYVIVYKRSSFGYRKCIEC, for which the amyloid nucleation score entry is “inactive”. The result for NSIQEDV reads “inactive”; that for YNSRDDSIKFFFVRSCILTY, “inactive”.

Regarding VRMCVIVQVKVCARDMTVST, the amyloid nucleation score result was “inactive”. For the substance RVVCAD, the amyloid nucleation score entry is “inactive”.

Turning to CSGSDKVWTCLFLYAKKPRW, the amyloid nucleation score entry was “inactive”.

In turn, LASFEIRNREY had an amyloid nucleation score of 0.519 ± 0.33.

For RCLAPGCRIVNRFLSINYKS, the amyloid nucleation score entry was “inactive”.

On to YINHSSSTA, for which the amyloid nucleation score entry was “inactive”.

Consider TCSISIRAGLVLNPCWSDYA, for which the amyloid nucleation score result is “inactive”. With PRLNMGCMLFSEYTYCQMIL, the amyloid nucleation score is 1.1 ± 0.14. Regarding LKLTMSFMSQDLIIHVIDCS, the amyloid nucleation score entry was “inactive”. For RNWLYLFVRRLISWLNKWGK, the amyloid nucleation score entry is “inactive”. For the substance LLLFRGAYRLQISAFCLCTE, the amyloid nucleation score entry was “inactive”.

As for HVSGVIYVVGNN, the amyloid nucleation score result is “inactive”.

For TSWTGWVRCHIGSSNISALT, the amyloid nucleation score entry is “inactive”.

As to VLGLFSTYDSFVCFN, the amyloid nucleation score result is “inactive”. As for LNLCTRLVFNPVTFQGNTFK, the amyloid nucleation score result was “inactive”.

As for RVLNS, the amyloid nucleation score entry is “inactive”. Consider KYVYYSFLERSFDYMYFSRQ, for which the amyloid nucleation score result is “inactive”. As to RIHDNVPSIVWFWEPPHPRH, the amyloid nucleation score entry is “inactive”. For the substance SIVQLNYTELAVKWSLVS, the amyloid nucleation score entry was “inactive”. With FMYMVNMVNVTVN, the amyloid nucleation score result was “inactive”. Take KCPRVDSA: the amyloid nucleation score entry was “inactive”.

For the substance WELMCKALGRGRRCWYKCFL, the amyloid nucleation score result is “inactive”. Consider DSKQNYLIRVDRLFMECGLK, for which the amyloid nucleation score result is “inactive”.
